Here are results for 2 molecules from publication PMC9335216 (Proceedings of the National Academy of Sciences of the …, 2022).

The test system of data set [1] is glutathione reductase (GR). The experiment in a line: stopped-flow, NAD. As to conditions: read-out: apparent KM; 180 µM NAD(P)H, 10 nM enzyme, 50 to 250 µM HOSCN, 100 mM sodium phosphate pH 7.4, aerobic. In kind it is biochemical.
Substrate in the data set “purified protein”: O=S(=O)(O)CCNCl
Description: purified protein. As to conditions: 100 µM NADH, 10 µM enzyme, 20 mM HEPES, 100 mM NaCl pH 7, anaerobic.

Usually Km stands for the substrate concentration at which the rate is half of its maximum. With `N#CSO` [HOSCN, hypothiocyanous acid], in data set [1], the Km came out at 81 µM.

B1: RclA (Escherichia coli K-12) (protein)
chain: MNKYQAVIIGFGKAGKTLAVTLAKAGWRVALIEQSNAMYGGTCINIGCIPTKTLVHDAQQHTDFVRAIQRKNEVVNFLRNKNFHNLADMPNIDVIDGQAEFINNHSLRVHRPEGNLEIHGEKIFINTGAQTVVPPIPGITTTPGVYDSTGLLNLKELPGHLGILGGGYIGVEFASMFANFGSKVTILEAASLFLPREDRDIADNIATILRDQGVDIILNAHVERISHHENQVQVHSEHAQLAVDALLIASGRQPATASLHPENAGIAVNERGAIVVDKRLHTTADNIWAMGDVTGGLQFTYISLDDYRIVRDELLGEGKRSTDDRKNVPYSVFMTPPLSRVGMTEEQARESGADIQVVTLPVAAIPRARVMNDTRGVLKAIVDNKTQRMLGASLLCVDSHEMINIVKMVMDAGLPYSILRDQIFTHPSMSESLNDLFSLVK
A word on the kcat: it is the maximal rate divided by the concentration of active sites. On to B1, for which, in the data set “purified protein”, the Km was found to be 12.7 mM and the kcat is 33 s⁻¹.
